Here are results for four substances from publication PMC8310559.

In this assay the target is ectodomain of SARS-CoV-2 S protein (a.a. 1-1208 (SARS-CoV-2) (UniProt P0DTC2)). In words: SPR. Background: Surface plasmon resonance follows binding to a sensor surface in real time, without labels.
A word on the Kd: it is the equilibrium constant for the complex coming apart. Low readings indicate tighter binding, high ones weaker binding. As for CR3022 Fab, the Kd came out at 45.4 nM. That is a double-digit nanomolar value. For the substance CR3022 scFv VHVL, the Kd is 20.1 nM. To CR3022 IgG (antibody) belongs 0.21 nM; to CR3022 scFv VLVH, 27.8 nM.
